Assay results reported in article PMC8528048, “Chemoselective cysteine or disulfide modification via single atom substitution in chloromethyl acryl reagents” (Chemical Science, 2021).

Test system: Micrococcus lysodeikticus lyophilized cell suspensions
Assay: Lysozyme enzymatic assay: absorbance change at 450 nm of cell suspensions
Format: biochemical
Settings: 0.01 mg/mL enzyme, 10 μL into 250 μL cell suspension 0.32 mg/mL, 66 mM phosphate buffer pH 6.2; A450 every minute for 15 minutes; ratio of slopes minus blank
Experimental: Lysozyme is an antimicrobial enzyme that is capable of hydrolyzing the 1,4-beta-linkages in the peptidoglycan of Gram-positive bacterial cell walls, thus leading to the lysis of bacteria (Fig. 8a). Therefore, the catalytic activity of modified lysozyme was assessed by investigation of the absorbance change at 450 nm of Micrococcus lysodeikticus lyophilized cell suspensions over time, where the activity of the modified lysozyme is proportional to their capability to hydrolyze the bacterial cell walls.[45] In comparison to native lysozyme, the disulfide-modified lysozyme Ly-PEG-Tz retained 86% of its activity (Fig. 8b, calculation details shown in Section 8.3 in ESI ^†).
Fig. 8 (a) The hydrolysis of 1,4-beta-linkages between N-acetyl-D-glucosamine (NAG) and N-acetylmuramic acid (NAM) residues in peptidoglycans of Gram-positive bacterial cell walls. The absorbance of the cell suspension at 450 nm was monitored to evaluate their catalytic activity and the rate of absorbance decrease was proportional to its activity. […]
The lysozyme enzymatic assay was performed according to the protocol form Sigma Aldrich’s technical bulletin. […] 250 μL of the cell suspensions was added to the 96-well plate and the absorbance was measured at 450 nm. According to the obtained absorbance, the concentration was carefully adjusted to ensure the absorbance at 450 nm between 0.6 and 0.7. […]

Substance	catalytic activity retained in comparison to native lysozyme
Ly-PEG5-Tz: lysozyme statistically modified at lysines with Tz-PEG5-NHS; mixture of no, single and dual modification	Total loss of the activity
Ly-PEG-Tz: lysozyme (hen egg white) modified at the C6–C127 disulfide with PEG-tetrazine via compound 8	86%
